This is an account of results in US10883980 (TRUSTEES OF PRINCETON UNIVERSITY, dated 2021).

Data set [1] concerns the molecule itself. The data set is described as follows: Western blot (anti-HA) of lysates from cells expressing ORF3-HA; self-association.
Data set [2] deals with the molecule itself. The data set is described as follows: Western blot (anti-HA) of HepG2C3A lysates; self-association. Background: Immunoblotting shows a protein as a band on a membrane.

B1: ORF3-HA (HA-tagged wild-type HEV ORF3 protein, Kernow C1/p6) (other)
chain: MGSPCALGLFCCCSSCFCLCCPRHRPASRLAVVVGGAAAVPAVVSGVTGLILSPSPSPIFIQPTPSPPISFHNPGLELALGSRPAPLAPLGVTSPSAPPLPPAVDLPQLGLRR
notes: Expressed by lentivirus in HepG2C3A cells and tested in cell lysate; also called HEV ORF3-HA; HA-tagged ORF3; not shown: HA tag; the name ORF3-HA puts it at the C-terminus
For B1, the binding result in data set [1] is given as “binds”.

B2: ORF3[IFI59-61AAA], HA-tagged (other)
chain: MGSPCALGLFCCCSSCFCLCCPRHRPASRLAVVVGGAAAVPAVVSGVTGLILSPSPSPAAAQPTPSPPISFHNPGLELALGSRPAPLAPLGVTSPSAPPLPPAVDLPQLGLRR
notes: Alanine triplet mutant of Kernow C1/p6 ORF3; also called ORF3[IF159-61AAA]; not shown: HA tag
Turning to B2, in data set [2], the binding result is “binds”.
